Changes are numbered by the printed parent chain. Numbers in names are those of the source.

Assay [1] concerns the target KEAP1 (wild-type full-length), His-tagged (human) (UniProt Q14145). Briefly: AlphaScreen; mean over 9.6, 19.2 and 38.4 nM NRF2; 150 nM His-KEAP1.
Assay [2] shares this target. Briefly: AlphaScreen; 38.4 nM FLAG-NRF2, 150 nM His-KEAP1; wild type set to 100%.
Assay [3] shares this target. The assay is described as follows: AlphaScreen; 19.2 nM FLAG-NRF2, 150 nM His-KEAP1; Rep 2; control for I28V.
For assay [4] the target is unchanged. The assay is described as follows: AlphaScreen; 19.2 nM FLAG-NRF2, 150 nM His-KEAP1; Rep 2; control for I86V. In general terms: In Alpha technology, singlet oxygen from a donor bead excites a nearby acceptor bead.
Assay [5] has the same target. Briefly: AlphaScreen; 614.4 nM FLAG-NRF2, 150 nM His-KEAP1; Rep 1; control for I28V.
The target is the same in assay [6]. The assay is described as follows: AlphaScreen; 153.6 nM FLAG-NRF2, 150 nM His-KEAP1; Rep 3; control for I86V.
Assay [7] shares this target. The assay is described as follows: AlphaScreen; 614.4 nM FLAG-NRF2, 150 nM His-KEAP1; Rep 2; control for I86V.
Assay [8] shares this target. The assay is described as follows: AlphaScreen; 9.6 nM FLAG-NRF2, 150 nM His-KEAP1 (same value as in Table 26).
For assay [9] the target is unchanged. Briefly: AlphaScreen; 2.4 nM FLAG-NRF2, 150 nM His-KEAP1; signal against NRF2 only; control for I28V.
Assay [10] has the same target. The assay is described as follows: AlphaScreen; 4.8 nM FLAG-NRF2, 150 nM His-KEAP1; signal against NRF2 only; control for I86V.
Assay [11] has the same target. Briefly: AlphaScreen; 307.2 nM FLAG-NRF2, 150 nM His-KEAP1; signal against NRF2 only; control for I86V.
Assay [12] has the same target. Briefly: AlphaScreen; 1228.8 nM FLAG-NRF2, 150 nM His-KEAP1; signal against NRF2 only; control for I28V.
For assay [13] the target is unchanged. Briefly: AlphaScreen; FLAG-NRF2 wt isoform 1 4.8 nM, His-KEAP1 150 nM; Rep 2; positive control for Q75R.
Assay [14] has the same target. Briefly: AlphaScreen; FLAG-NRF2 wt isoform 1 307.2 nM, His-KEAP1 150 nM; Rep 2; positive control for Q75R.
Assay [15] has the same target. The assay is described as follows: AlphaScreen; FLAG-NRF2 I86V 9.6 nM, His-KEAP1 150 nM; Rep 2.
The target is the same in assay [16]. Briefly: AlphaScreen; FLAG-NRF2 I86V 19.2 nM, His-KEAP1 150 nM; Rep 3.
The target is the same in assay [17]. The assay is described as follows: AlphaScreen; FLAG-NRF2 I86V 38.4 nM, His-KEAP1 150 nM; Rep 3.
Assay [18] shares this target. Briefly: AlphaScreen; FLAG-NRF2 I86V 307.2 nM, His-KEAP1 150 nM; Rep 3.
Assay [19] shares this target. Briefly: AlphaScreen; FLAG-NRF2 I86V 614.4 nM, His-KEAP1 150 nM; Rep 2.
For assay [20] the target is unchanged. Briefly: AlphaScreen; NRF2 I86V 19.2 nM, KEAP1 150 nM; relative to wild-type NRF2 isoform 1 (100 %).
Assay [21] has the same target. The assay is described as follows: AlphaScreen; FLAG-NRF2 Q75R 9.6 nM, His-KEAP1 150 nM; Repeat 1.
Assay [22] shares this target. Briefly: AlphaScreen; FLAG-NRF2 Q75R 19.2 nM, His-KEAP1 150 nM; Repeat 1.
Assay [23] shares this target. Briefly: AlphaScreen; NRF2 Q75R 19.2 nM, KEAP1 150 nM; relative to wild-type NRF2 isoform 1 (100 %).
Assay [24] shares this target. The assay is described as follows: AlphaScreen; 38.4 nM FLAG-NRF2, 150 nM His-KEAP1; Rep 2.
For assay [25] the target is unchanged. Briefly: AlphaScreen; 614.4 nM FLAG-NRF2, 150 nM His-KEAP1; Rep 1.
The target is the same in assay [26]. The assay is described as follows: AlphaScreen; 9.6 nM FLAG-NRF2, 150 nM His-KEAP1; signal against NRF2 only.
Assay [27] has the same target. The assay is described as follows: AlphaScreen; 38.4 nM FLAG-NRF2, 150 nM His-KEAP1 (same value as in Table 27).

Chain of KEAP1 (wild-type full-length), His-tagged (human) (Q14145 2-624 limits assumed): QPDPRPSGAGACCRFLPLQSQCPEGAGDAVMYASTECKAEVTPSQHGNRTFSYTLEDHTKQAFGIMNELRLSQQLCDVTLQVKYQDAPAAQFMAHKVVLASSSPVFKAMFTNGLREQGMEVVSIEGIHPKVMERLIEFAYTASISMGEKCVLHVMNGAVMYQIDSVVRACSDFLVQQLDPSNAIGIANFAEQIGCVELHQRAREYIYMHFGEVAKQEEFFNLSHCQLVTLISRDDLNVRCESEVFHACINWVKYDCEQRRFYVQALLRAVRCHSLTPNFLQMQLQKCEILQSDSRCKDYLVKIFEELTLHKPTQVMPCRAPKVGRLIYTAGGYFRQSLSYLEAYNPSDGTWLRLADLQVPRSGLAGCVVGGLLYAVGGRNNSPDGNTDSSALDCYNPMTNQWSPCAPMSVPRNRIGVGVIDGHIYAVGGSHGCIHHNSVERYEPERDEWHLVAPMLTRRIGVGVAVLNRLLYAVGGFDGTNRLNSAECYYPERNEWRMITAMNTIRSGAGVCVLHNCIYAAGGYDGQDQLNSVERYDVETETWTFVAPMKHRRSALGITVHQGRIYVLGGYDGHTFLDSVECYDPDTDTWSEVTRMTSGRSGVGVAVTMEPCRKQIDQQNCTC

B1: NRF2 isoform 1 (wild-type full-length), FLAG-tagged (protein)
chain: MMDLELPPPGLPSQQDMDLIDILWRQDIDLGVSREVFDFSQRRKEYELEKQKKLEKERQEQLQKEQEKAFFAQLQLDEETGEFLPIQPAQHIQSETSGSANYSQVAHIPKSDALYFDDCMQLLAQTFPFVDDNEVSSATFQSLVPDIPGHIESPVFIATNQAQSPETSVAQVAPVDLDGMQQDIEQVWEELLSIPELQCLNIENDKLVETTMVPSPEAKLTEVDNYHFYSSIPSMEKEVGNCSPHFLNAFEDSFSSILSTEDPNQLTVNSLNSDATVNTDFGDEFYSAFIAEPSISNSMPSPATLSHSLSELLNGPIDVSDLSLCKAFNQNHPESTAEFNDSDSGISLNTSPSVASPEHSVESSSYGDTLLGLSDSEVEELDSAPGSVKQNGPKTPVHSSGDMVQPLSPSQGQSTHVHDAQCENTPEKELPVSPGHRKTPFTKDKHSSRLEAHLTRDELRAKALHIPFPVEKIINLPVVDFNEMMSKEQFNEAQLALIRDIRRRGKNKVAAQNCRKRKLENIVELEQDLDHLKDEKEKLLKEKGENDKSLHLLKKQLSTLYLEVFSMLRDEDGKPYSPSEYSLQQTRDGNVFLVPKSKKPDVKKN
As to B1, the Average Binding in assay [1] came to 100%. The molecule also gave a Binding Percentage (%) in assay [2] of 100%. Besides, the A-counts in assay [3] came to 2000 A-counts; in assay [4], 3270 A-counts; in assay [5] it was 1780 A-counts; in [6], 2990 A-counts; in assay [7] it was 2520 A-counts. Moreover, the S/N in assay [8] was 4.1; in [9], 2.2; in assay [10], 2.8; in assay [11] it was 1.5; in assay [12] it was 1. The A-counts (NRF2 plus KEAP1) in assay [13] amounted to 754 A-counts; in assay [14], 1570 A-counts.

B2: NRF2 isoform 1 (I86V full-length), FLAG-tagged (protein)
chain: B1 chain with I86V
On to B2, for which the A-counts (NRF2 plus KEAP1) in [15] turned out to be 2610 A-counts; in [16] it was 2970 A-counts; in [17], 2930 A-counts; in assay [18], 2140 A-counts; in assay [19], 1970 A-counts. The molecule also returned a Binding Percentage in [20] of 97.8%.

B3: NRF2 isoform 1 (Q75R full-length), FLAG-tagged (protein)
chain: B1 chain with Q75R
For the molecule B3, the A-counts (NRF2 plus KEAP1) is 1180 A-counts in assay [21] and 1300 A-counts in assay [22]. Further, the Binding Percentage in [23] came out at 63.7%.

B4: NRF2 isoform 1 (I28V full-length), FLAG-tagged (protein)
chain: B1 chain with I28V
Take B4: the A-counts in assay [24] is 1680 A-counts; in assay [25], 1220 A-counts. The figures for the S/N in assay [26] and in assay [27] were 3.4 and 2.7, respectively.

(Values after patent US20250352667A1.)
